In patent US20030113828:

Target: integrin αIIbβ3 (wild type) (UniProt P08514)

Syk truncation mutant (residues 1-330)
adhesion dependent phosphorylation of Vav1: Over expression of Syk(1-330) also inhibited adhesion dependent phosphorylation of Vav1
